Source: patent publication US20070031511A1, “Method of treatment” (priority 2003, published 2007)

Assays:
[1] = biological target: Ggly receptor on IMGE-5 cells; test: [125I]-Ggly binding to IMGE-5 cells in the presence of 2 moles Bi3+/mole Ggly
[2] = biological target: Ggly receptor on IMGE-5 cells; test: cell-based or functional assay

- % inhibition of binding by bismuth ions [1]: 50%
- ED50 (nM), proliferation of IMGE cells, thymidine uptake [2]: 0.8 nM
B1: glycine-extended gastrin17 (Ggly) (peptide)
peptide: XGPWLEEEEEAYGWMDFG
modifications: N-terminal pyroglutamate (Z); 125I-iodinated (IODO-GEN) in the receptor binding assay
